This is an account of results in patent US20140178394A1.

In the assay the target is HLA-A*0201 HLA class I MHC monomer (iTopia Epitope Discovery System, coated on plate) (human). Briefly: overall rank from iTopia EDS and CEM T2 assays on HLA-A*0201.

B1: reference peptide 513 (NY-ESO-1), … (peptide)
peptide: SLLMWITQV
modifications: not checked
As for B1, the RANK F-Score was 2.
